This is an account of results in patent US20240150440A1 (LUMEN BIOSCIENCE, published 2024).

The term EC50 denotes the concentration giving half of the maximal effect. Read a low EC50 as greater potency. Usually IC50 stands for the concentration needed to halve the response being measured. Broadly, the Kd is the concentration at which binding is half-saturated.

In test [1] the target is SARS-COV-2 Wuhan Reference RBD (SARS-CoV-2, UniProt P0DTC2 319-541). Nature of the test: ELISA, RBD coated. For orientation: In an ELISA, binding on a coated surface is turned into a signal by an enzyme label.
Test [2] addresses T1, recombinant SARS-CoV-2 RBD with C-terminal AviTag (SARS-CoV-2, UniProt P0DTC2 319-541). Nature of the test: ELISA, competition with coated ACE2-Fc for RBD [Cont. 7].
The target of test [3] is T1, recombinant SARS-CoV-2 RBD with …. Nature of the test: BLI, biotinylated RBD on streptavidin biosensors. Background: In BLI a coated tip is dipped into the sample, and binding shifts an interference pattern.
Test [4] has the same target.
The target is the same in test [5]. The source holds these as a separate data set.
The target is the same in test [6]. The experiment in a line: ELISA, competition with coated ACE2-Fc for RBD.
The target is the same in test [7]. The source holds these as a separate data set.

Changes are numbered by the printed parent chain. In names and notes the source's numbering stands. Read-outs that look alike come from different tables or passages of the source.

B1: PP911 MBP-5HVZ-S2b-F7-H6 (VHH)
VHH: QVQLVESGGGLVQPGGSLRLSCAASGSTLSNNAMHWFRQAPGKAREFVAAIGSSDSTDYKDSVKGRFTISRDNAKNTVYLQMNSLKPEDTAVYYCTALLDSGPGEYNYWGQGTQVTVSS
notes: Form: Dimer
In test [1], B1 displayed an EC50 of 2.36 nM. In addition, in test [2], the IC50 is 43.6 nM. Also, the Kd in test [3] turned out to be 44.3 nM.

B2: PP907 MBP-5HVZ-S1b-E11-H6 (VHH)
VHH: QVQLVESGGGLVQPGGSLRLSCAASGSYASIASMHWFRQAPGKEREFVAGVTSGGSTNYGDSVKGRFTISRDNAKNTVYLQMNSLKPEDTAVYYCNALAGANYESQWEEYNYWGQGTQVTVSS
notes: Form: Dimer
For the molecule B2, a half-maximal response in test [1] (EC50) required 3 nM. Moreover, in test [2], the IC50 amounted to 15.9 nM.

B3: MBP-5HVZ-R2D-A6-H6 (VHH, not shown: large carriers; small tags and cut ends)
VHH: B2 VHH with Y28G, A32G, S33A, E44G, F47W, G50S, V51I, G54A, S56N, N58Y
Consider B3, for which, in test [4], the IC50 came to 6.3 nM and the Kd was 19.6 nM.

B4: PP909 MBP-5HVZ-S2b-A7-H6 (VHH)
VHH: QVQLVESGGGLVQPGGSLRLSCAASGSSDSWNALHWFRQAPGKEREFVAGISSAGSGYYADSVKGRFTISRDNAKNTVYLQMNSLKPEDTAVYYCNGYEHTTGYDYWGQGTQVTVSS
notes: Form: Dimer
Molecule B4 showed an EC50 in test [1] of 0.62 nM. In addition, in test [2], the IC50 is 5.9 nM. In test [3], the Kd came to 22.5 nM.

B5: MBp-5HVZ-R2C-B3-H6 (VHH, not shown: large carriers; small tags and cut ends)
VHH: QVQLVESGGGLVQPGGSLRLSCAASGTYASYETIAWYRQAPGKQREKVARITGAGSSFYADSVKGRFTISRDNAKNTVYLQMNSLKPEDTAVYYCNADSIPPALRAANTGYWGQGTQVTVSS
Regarding B5, in test [5], the IC50 turned out to be 1.4 nM and the Kd was 33 nM.

B6: PP914 MBP-5HVZ-S3a-H1-H6 (VHH)
VHH: QVQLVESGGGLVQPGGSLRLSCAASGGIYSPYSMHWFRQAPGKAREWVAGIVGGGGTTYSDSVKGRFTISRDNAKNTVYLQMNSLKPEDTAVYYCNANYQEYDEYDYWGQGTQVTVSS
notes: Form: Dimer
Molecule B6 yielded an EC50 in test [1] of 3.24 nM. Further, the IC50 in test [2] turned out to be 4.3 nM.

B7: PP916 MBP-5HVZ-S3b-A8-H6 (VHH)
VHH: QVQLVESGGGLVQPGGSLRLSCAASGSIISRVKVHWFRQAPGKSREWVAGIDSGTASYYSDSVKGRFTISRDNAKNTVYLQMNSLKPEDTAVYYCAAENRGYGVDWGQGTQVTVSS
notes: Form: Dimer
As to B7, in test [1], the midpoint of the response, the EC50, lay at 1.19 nM. In addition, the IC50 in test [2] was determined as 2 nM. Further, the Kd in test [3] came out at 12.1 nM.

B8: PP910 MBP-5HVZ-S2b-C10-H6 (VHH)
VHH: QVQLVESGGGLVQPGGSLRLSCAASGSAFSLNYMAWFRQAPGKQREGVAIIGSGGSSDYADSVKGRFTISRDNAKNTVYLQMNSLKPEDTAVYYCAAQPNGSPDDFDYWGQGTQVTVSS
notes: Form: Dimer
For B8, in test [2], the IC50 amounted to 405 nM. The Kd in test [3] turned out to be 54 nM.

B9: MBP-R2C-F6-H6 (VHH, not shown: large carriers; small tags and cut ends)
VHH: QVQLVESGGGLVQPGGSLRLSCAASGRILAANIVHWYRQAPGKEREGVAGITTGGSNYYSDSVKGRFTISRDNAKNTVYLQMNSLKPEDTAVYYCNALGLGSASGSYESWGQGTQVTVSS
Turning to B9, the Kd in test [5] is about 3600 nM.

B10: PP1143 MBP-5HVZ-PAPA-R2b-D5-H6 (VHH)
VHH: QVQLVESGGGLVQPGGSLRLSCAASGYADEINMVHWYRQAPGKGREFVAAIASGGSTFYADSVKGRFTISRDNAKNTVYLQMNSLKPEDTAVYYCAAIPRPSLSYAHDYAYWGQGTQVTVSS
notes: Form: Dimer
In the case of B10, the half-maximal inhibitory concentration (IC50) in test [6] was 8.4 nM.

B11: PP1155 MPB-scTRP-PAPA-R2b-D5-H6 (VHH)
VHH: B10 VHH
notes: Form: Trimer
B11: the IC50 in test [6] worked out at 46.5 nM.

B12: PP1131 MBP-4B0F-PAPA-R2b-D5-H6 (VHH)
VHH: B10 VHH
notes: Form: Heptamer
Regarding B12, the IC50 in test [6] amounted to 14.5 nM.

B13: PP908 MBP-5HVZ-S2a-C4-H6 (VHH)
VHH: QVQLVESGGGLVQPGGSLRLSCAASGFSESINATAWFRQAPGKQREGVAGLDGGGSDYYSDSVKGRFTISRDNAKNTVYLQMNSLKPEDTAVYYCAAQLTSSFRGYDFTPSNYDYWGQGTQVTVSS
notes: Form: Dimer
B13 gave an EC50 in test [1] of 1.59 nM. Besides, the IC50 in test [2] is 13.1 nM. In addition, the Kd in test [3] was found to be 219 nM.

B14: MBP-5HVZ-R5D-F3-H6 (VHH, not shown: large carriers; small tags and cut ends)
VHH: QVQLVESGGGLVQPGGSLRLSCAASGSQLSINYVHWFRQAPGKQREFVAAITITGSSYYADSVKGRFTISRDNAKNTVYLQMNSLKPEDTAVYYCNTVDRTDNYGYDYWGQGTQVTVSS
For the molecule B14, in test [7], the 50% inhibitory concentration (IC50) was 29.3 nM.

B15: MBP-R2C-G6-H6 (VHH, not shown: large carriers; small tags and cut ends)
VHH: QVQLVESGGGLVQPGGSLRLSCAASGSIYKYSDVHWFRQAPGKAREAVALLTGAGTTIYGDSVKGRFTISRDNAKNTVYLQMNSLKPEDTAVYYCAAGQGFKATRTFDSWGQGTQVTVSS
For the molecule B15, the Kd in test [4] was about 3900 nM.

B16: PP915 MBP-5HVZ-S3b-A7-H6 (VHH)
VHH: QVQLVESGGGLVQPGGSLRLSCAASGSIASINAIHWVRQAPGKQREEVAAITSGGSTGYADSVKGRFTISRDNAKNTVYLQMNSLKPEDTAVYYCAAQPGQSYAVWGQGTQVTVSS
notes: Form: Dimer
As for B16, in test [1], the response was half-maximal at 1.05 nM (EC50). For the same molecule, the Kd in test [3] is 2.63 nM.

B17: PP913 MBP-5HVZ-S3a-C5-H6 (VHH)
VHH: QVQLVESGGGLVQPGGSLRLSCAASGSIKNTNAMHWFRQAPGKDREWVAGITSGGNSNYGDSVKGRFTISRDNAKNTVYLQMNSLKPEDTAVYYCAAFGYRYDQDYTYDYWGQGTQVTVSS
notes: Form: Dimer
Molecule B17 returned an EC50 in test [1] of 1.53 nM. Besides, the IC50 in test [2] came to 2.8 nM. For the same molecule, the Kd in test [3] turned out to be 1.42 nM.

B18: MBP-5HVZ-R2E-D2-H6 (VHH, not shown: large carriers; small tags and cut ends)
VHH: QVQLVESGGGLVQPGGSLRLSCAASGHQLSTNATHWFRQAPGKNREFVASIGSGSSSYYADSVKGRFTISRDNAKNTVYLQMNSLKPEDTAVYYCTALGGDELDGMTYDYWGQGTQVTVSS
Regarding B18, in test [4], the half-inhibitory concentration (IC50) was 6.8 nM and the Kd is 19.1 nM.

B19: PP1176 MBP-5HVZ-PAPA-R2a-F3-H6 (VHH)
VHH: QVQLVESGGGLVQPGGSLRLSCAASGSITSINWMHWFRQAPGKDREGVASISQTGRGSYADSVKGRFTISRDNAKNTVYLQMNSLKPEDTAVYYCAAASRTGTPYNYWGQGTQVTVSS
notes: Form: Dimer
B19 displayed an EC50 in test [1] of 0.29 nM. Besides, the IC50 in test [6] was 10.4 nM.

B20: PP1177 MPB-scTRP-PAPA-R2a-F3-H6 (VHH)
VHH: B19 VHH
notes: Form: Trimer
With B20, in test [6], the IC50 is 83.6 nM.

B21: MBP-5HVZ-R5D-G6-H6 (VHH, not shown: large carriers; small tags and cut ends)
VHH: QVQLVESGGGLVQPGGSLRLSCAASGRILAANIVHWYRQAPGKNREGVAGITSGGSTYYADSVKGRFTISRDNAKNTVYLQMNSLKPEDTAVYYCAAKPLGSPDDFDYWGQGTQVTVSS
For B21, in test [7], the IC50 was found to be 3.2 nM and the Kd is 31.3 nM.

B22: MBP-5HVZ-R5E-G2-H6 (VHH, not shown: large carriers; small tags and cut ends)
VHH: QVQLVESGGGLVQPGGSLRLSCAASGTIKSINAMHWFRQAPGKAREFVASIGSNGAKSYSDSVKGRFTISRDNAKNTVYLQMNSLKPEDTAVYYCTALITVAESDDYDYWGQGTQVTVSS
On to B22, for which the dissociation constant Kd in test [7] was determined as 3.14 nM.
